{
  "source": "patent US20230212587A1",
  "about": "“Mutant Hydroxyphenylpyruvate Dioxygenase Polypeptide, Encoding Gene Thereof and Use Therefor” (Beijing Dabeinong Biotechnology Co., Ltd., priority 2019, published 2023)",
  "molecules": {"B1": {"name": "StHPPDm-F372G: Solanum tuberosum HPPD mutant F372G, SEQ ID NO: 329 (protein)", "chain": "MGKQAATATATATATADDQQLPADIEDKYKLVGFNNFVRTNPRSDLFNVKRFHHIEFWCGDATNTARRFSWGLGLPIAAKSDLSTGNSVHASYLLRSSSSQLQFLFTAPYSPAISTPSSSSIPTFSVSSHRSFTETHGLGVRAIALEVENSRLAFSTCVSHGAKPVSEPVILNDEVVISEVHLYGDVVLRFVSFLKDSNRFVFLPGFELVEGAQLDYGIRRLDHAVGNVPQLGPVVEYIKSFTGFHEFAEFTAEDVGTAESGLNSVVLANNDETVLFPLNEPVYGTKRKSQIQTYLEHNEGAGVQHLALVTEDIFRTLREMRKRSGIGGFEFMPSPPPTYYKNLKSRAGDILSDEQIKECEELGILVDRDDQGTLLQIGTKPVGDRPTIFLEIIQRIGCMLQNAEGELYQKGGCGGFGKGNFSELFKSIEEYEKTLEAKQNTQVAIA", "modifications": "StHPPDm-F372G Amino Acid Sequence"}, "B2": {"name": "N1HPPDm-F372G: Sphingobium sp. N1 HPPD mutant F372G, SEQ ID NO: 337 (protein)", "chain": "MAADSENPLGLHGFAFAEFTSPDPAAMARQFEQLGFVPAARRKDRGLTLYRQGRIAFILNAGEGEQASAFRAAHGPSANGMAFNVADAKAAHRHAIQSGATDADTAQSALPGTYAIEGIGDSLLYLVDSDPFADWDEVPGWREASAERGVGLDLLDHLTHNVRRGQMRVWSEFYATLFGFEEQKFFDIKGQATGLFSQAMIAPDHEIRIPLNESQDDNSQIEEFIREYNGEGIQHLALTTPDIYSTVEKLRANGVRLQDTIDTYYDLVDERVPGHGEDLARLRKNRILIDGDVHDEGLLLQIGTETMFGPIFFEIIQRKGNEGFGNGNFQVLYESIELDQIRRGVVTVDA", "modifications": "N1HPPDm-F372G Amino Acid Sequence"}, "B3": {"name": "S1HPPDm-F372G: Solanum lycopersicum HPPD mutant F372G, SEQ ID NO: 331 (protein)", "chain": "MGKQAAAAADDQQLPGDIEDKFKLVGFNHFVRTNPRSDFFTVKRFHHIEFWCGDATNTARRFSWGLGLPIAAISDLSTGNSVHASYLLRSSSSSQLQFLFTAPYSSAISTSSSASIPTFSVSSHRSFTATHGLGVRAIALEVENSRLAFSTCVAHGAKPVSEPVILNDEVVIAEVHLYGDVVLRFVSFLKDSNCFVFLPGFESVEGAQLDYGIRRLDHAVGNVPELGPVVEYIKSFTGFHEFAEFTAEDVGTAESGLNSVVLANNDETVLFPLNEPVYGTKRKSQIQTYLEHNEGAGVQHLALVTEDIFRTLREMRKRSGIGGFEFMPSPPPTYYKNLKTRAGDILSDEQIQECEELGILVDRDDQGTLLQIGTKPVGDRPTIFLEIIQRIGCMLKNEEGELYQKGGCGGFGKGNFSELFKSIEEYEKTLEAKQNTQVAIA", "modifications": "SlHPPDm-F372G Amino Acid Sequence"}, "B4": {"name": "N2HPPDm-F372G: Sphingobium sp. N2 HPPD mutant F372G, SEQ ID NO: 339 (protein)", "chain": "MTLFDNPLGLDGFEFVEFSAPAKGMLEPVFAAMGFVMIARHRSKDVQLWRQGGINLIANYEPRSPAAYFAAEHGPSACGMGWRVRNAAKAYELAVERGAEPVDVKTGPMELRLPAIRGIGGSIIYLIDRYEDEDGGLSIYDIDFVYEPGVDRHPEGAGFKIIDHLTHNVYGGRMAHWASFYERVFGFREIRYFDIKGEYTGLTSKAMTAPDGKIRIPLNEEGKAGGGQIEEFLRAYNGEGIQHIAFLCDDLIAAWDKLKALGTPLMTAPPATYYEMLDERLPGHGEPVAELQKRGILLDGSTQQGDPRLLLQIGGQATIGPVFFEFIQRKKDEGFGEGNFTALFESMERDQLRRGTLNAGESA", "modifications": "N2HPPDm-F372G Amino Acid Sequence"}, "B5": {"name": "AhHPPDm-F372G: Arachis hypogaea HPPD mutant F372G, SEQ ID NO: 333 (protein)", "chain": "MATAYTYAHAVTYCNSQHNPPIIPILSTNQHPPRVTLPSSIPHFISTITTFNLKHFPSHSLHTVMVTQTQQNAPSSSPELGFKLVGFKNFVRTNPKSDRFKVIRFHHVEFWCTDATNTASRFSWGLGMPIVAKSDLSTGNAVHASYLLRSGDLNFLFSAPYSASIAGDGASASFPSFSASDCHSFAAKHGLAVRAVAIEVEDASAAFSASVANGAKPVSPAVLLDNSVGFAEVHLYGDVVLRYISYSAPTRESNLNPTLRFLPGFEAVEADSSFPELDYGIRRLDHAVGNVPELAPAVNYLKKFTGFHEFAEFTAEDVGTSESGLNSVVLASNDEMVLLPLNEPVYGTKRKSQIETYLEHNEGAGLQHLALVSEDIFRTLREMRKRSTIGGFQFMPSPPPTYYRNLKKRAGDVLSDEQIKECEELGILVDRDDQGTLLQIGTKPVGDRPTIFIEIIQRIGCMLKDEEGKVYQKGGCGGFGKGNFSELFKSIEEYEKTLESRRTA", "modifications": "AhHPPDm-F372G Amino Acid Sequence"}, "B6": {"name": "CsHPPDm-F372G: Cucumis sativus HPPD mutant F372G, SEQ ID NO: 327 (protein)", "chain": "MGKEADFPRAPSEATDGGATASQSEFELQGFDNFIRTNPKSDRFKVKRFHHIEFWCTDATNVARRFSWGLGMQIVAKSDLSTGNMTHASYLLRSGHLCFLFTAPYSPSIAAAQNLTPASTASIPSFDHSVCRSFSGTHGFGARAIALEVEDAEIAFRTSVAHGAKPSCPPIVLENRAVLSEVHLYGDVVLRYISYKNPVSGDNGENKPDEWFLPKFEAMEETASFPLDFGIRRLDHAVGNVPELGPAVSYLKGFTGFHEFAEFTAEDVGTSESGLNSMVLANNEEMVLLPINEPVFGTKRKSQIQTYLEHNEGAGVQHLALMSEDIFRTLREMRKRSSVGGFEFMPSPPPTYYKNLKSRAGDVLTDEQIKECEELGILVDKDDQGTLLQIGTKPVGDRPTIFIEIIQRLGCMMKDEEGKAFQKGGCGGFGKGNFSELFKSIEEYEKTLEAKRVSE", "modifications": "CsHPPDm-F372G Amino Acid Sequence"}, "B7": {"name": "N3HPPDm-F372G: Burkholderia sp. N3 HPPD mutant F372G, SEQ ID NO: 341 (protein)", "chain": "MQIPNWENPVGTDGFEFIEYTAPDPKALGQLFERMGFTAIARHRHKDVTVYRQGDINFIINAEPHSFAQRFARLHGPSICAIAFRVQDAAKAYQHALELGAWGFDNKTGPMELNIPAIKGIGDSLIYFVDRWRGKNGAQPGAIGDISIYDVDFEPIAGANPNPAGHGLTYIDHLTHNVHRGRMQEWAEFYERLFNFREVRYFDIEGKVTGVKSKAMTSPCGKIRIPINEEGSDTAGQIQEYLDAYHGEGIQHIALGTNDIYGAVDGLRGKEVKLLDTIDTYYELVDRRVPDHGESLDELKKRKILIDGARDDLLLQIGTENQIGPIFFEIIQRKGNQGFGEGNFKALFESIELDQIRRGVVQDKA", "modifications": "N3HPPDm-F372G Amino Acid Sequence"}, "B8": {"name": "N4HPPDm-F372G: Burkholderia sp. N4 HPPD mutant F372G, SEQ ID NO: 343 (protein)", "chain": "B7 chain with H65D, N160T, N258S, N343T", "modifications": "N4HPPDm-F372G Amino Acid Sequence"}, "B9": {"name": "CyHPPDm-F372G: Cyanobacteria HPPD mutant F372G, SEQ ID NO: 335 (protein)", "chain": "MEFDYLHLYVDDYQSAHRCYQRQWGFTCVNKIITDQGITGIYQQGQILLLISASESSLSRYADYLQKHPPGVGEVAWQVANWQKIQHQLSELQIETTPVIHPLTKAEGLTFLLWGDVHHSIYPVRSELNQNKTLHGVGLTTIDHVVLNIAADQFTQASQWYQQVFGWSVQQSFTVNTPHSGLYSEALASANGKVQFNLNCPTNNSSQIQTFLANNHGAGIQHVAFSTTSITRTVAHLRERGVNFLKIPTGYYQQQRNSSYFNYASLDWDTLQCLEILLDDQDNTGERLLLQIGSQPCYGVGTLFWEIIERRHRAKGFGQGNFQALYEAVETLEKQLEVP", "modifications": "CyHPPDm-F372G Amino Acid Sequence"}, "B10": {"name": "GsHPPDm-F372G: Gossypium hirsutum HPPD mutant F372G, SEQ ID NO: 299 (protein)", "chain": "MVQTNQSGSGNDFKLVGFSNFVRSNPKSDRFTVKRFHHIEFWCTDATNVARRFSWGLGMQFVAKSDLSTGNLTHASYLLRSRDLNFLFTAPYSPSIAVAQNLSPQSTASIPSFDHSLCRSFAATHGLGVRAIAIEVDDAETAFTTSVTHGALPFCPPTPLGDVATIAEVKLYGDVVLRYVSYTTTINSDHDFLPGFEKIEDTLSYPLDYGLRRLDHAVGNVPELGPAVSYVKSFTGFHEFAEFTAEDVGTSESGLNSVVLANNEEMVLLPMNEPVFGTKRKSQIQTYLEHNEGAGVQHLALVSEDIFKTLREMRKRSFVGGFEFMPSPPPTYYKKLKQRAGDILSDEQIKECEELGILVDRDDQGTLLQIGTKPVGDRPTIFIEIIQRIGCMVKDEEGKQYQKGGCGGFGKGNFSELFKSIEEYEKSLEAKQSQNP", "modifications": "GsHPPDm-F372G Amino Acid Sequence"}, "B11": {"name": "ZmHPPDm-F372G: Zea mays HPPD mutant F372G, SEQ ID NO: 295 (protein)", "chain": "MPPTPTAAAAGAAVAAASAAEQAAFRLVGHRNFVRFNPRSDRFHTLAFHHVELWCADAASAAGRFSFGLGAPLAARSDLSTGNSAHASLLLRSGSLSFLFTAPYAHGADAATAALPSFSAAAARRFAADHGLAVRAVALRVADAEEAFRTSVAAGARPAFGPVDLGRGFRLAEVELYGDVVLRYVSYPDGAAGEPFLPGFEGVASPGAADYGLSRFDHIVGNVPELAPAAAYFAGFTGFHEFAEFTTEDVGTAESGLNSMVLANNSENVLLPLNEPVHGTKRRSQIQTFLDHHGGPGVQHMALASDDVLRTLREMQARSAMGGFEFMAPPTSDYYDGVRRRAGDVLTEAQIKECQELGVLVDRDDQGVLLQIGPKPVGDRPTLFLEIIQRIGCMERDEKGQEYQKGGCGGFGKGNFSQLFKSIEDYEKSLEAMQAAAAATAQGS", "modifications": "ZmHPPDm-F372G Amino Acid Sequence"}},
  "note": "Where a chain is given by its changes, count along the chain named. Names may count otherwise.",
  "data": [
    {"tested_on": "Arabidopsis thaliana T1 plants", "assay": "Topramezone tolerance of transgenic Arabidopsis thaliana T1 plants (pesticide damage grade by bleached leaf area, score, resistance evaluation)", "format": "in vivo", "conditions": "topramezone 25 g ai/ha (1x); HPPD F372G mutants, Table 6", "outline": "(§1)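 Herbicide tolerance was judged per plant on a bleaching scale (grade 0 no bleaching to grade 3 fully bleached) 7 DAT. Topramezone doses were 0, 25, 50 and 100 g ai/ha on 18-day-old T1 and wild-type plants.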", "values": [
      {"molecule": "B1", "Resistance evaluation": "Poorly resistant"},
      {"molecule": "B2", "Resistance evaluation": "Highly resistant"},
      {"molecule": "B3", "Resistance evaluation": "Poorly resistant"},
      {"molecule": "B4", "Resistance evaluation": "Highly resistant"},
      {"molecule": "B5", "Resistance evaluation": "Poorly resistant"},
      {"molecule": "B6", "Resistance evaluation": "Poorly resistant"},
      {"molecule": "B7", "Resistance evaluation": "Highly resistant"},
      {"molecule": "B8", "Resistance evaluation": "Highly resistant"},
      {"molecule": "B9", "Resistance evaluation": "Moderately resistant"},
      {"molecule": "B10", "Resistance evaluation": "Moderately resistant"},
      {"molecule": "B11", "Resistance evaluation": "Highly resistant"}
    ]},
    {"tested_on": "Arabidopsis thaliana T1 plants", "assay": "Topramezone tolerance of transgenic Arabidopsis thaliana T1 plants (pesticide damage grade by bleached leaf area, score, resistance evaluation)", "format": "in vivo", "conditions": "topramezone 100 g ai/ha (4x); HPPD F372G mutants, Table 6", "outline": "as §1", "values": [
      {"molecule": "B1", "Resistance evaluation": "Non-resistant"},
      {"molecule": "B2", "Resistance evaluation": "Highly resistant"},
      {"molecule": "B3", "Resistance evaluation": "Non-resistant"},
      {"molecule": "B4", "Resistance evaluation": "Highly resistant"},
      {"molecule": "B5", "Resistance evaluation": "Non-resistant"},
      {"molecule": "B6", "Resistance evaluation": "Non-resistant"},
      {"molecule": "B7", "Resistance evaluation": "Highly resistant"},
      {"molecule": "B8", "Resistance evaluation": "Highly resistant"},
      {"molecule": "B9", "Resistance evaluation": "Non-resistant"},
      {"molecule": "B10", "Resistance evaluation": "Non-resistant"},
      {"molecule": "B11", "Resistance evaluation": "Moderately resistant"}
    ]}
  ]
}
